In patent US7070776:

What was measured:
CD28 receptor (human) = CD28 receptor (human) (UniProt P10747); assay: cell-based or functional assay
B7 antigen (human) [1] = target: B7 antigen (human) (UniProt P33681); assay: direct immunofluorescence flow cytometry, Daudi cells, after preincubation with unlabeled (cold) BB-1
B7 antigen (human) [2] = target: B7 antigen (human) (UniProt P33681); assay: direct immunofluorescence flow cytometry, Raji cells
B7 antigen (human) [3] = target: B7 antigen (human) (UniProt P33681); assay: direct immunofluorescence flow cytometry, T51 cells, after preincubation with unlabeled (cold) BB-1
B7 antigen (human) [4] = target: B7 antigen (human) (UniProt P33681); assay: direct immunofluorescence flow cytometry, T51 B-lymphoblastoid cells, no unlabeled BB-1
B7 antigen (human) [5] = target: B7 antigen (human) (UniProt P33681); assay: direct immunofluorescence flow cytometry, T51 cells
B7 antigen (human) [6] = target: B7 antigen (human) (UniProt P33681); assay: direct immunofluorescence flow cytometry, Raji cells, after preincubation with unlabeled (cold) BB-1
B7 antigen (human) [7] = target: B7 antigen (human) (UniProt P33681); assay: cell-based or functional assay
B7 antigen (human) [8] = target: B7 antigen (human) (UniProt P33681); assay: direct immunofluorescence flow cytometry, 5E1 cells, after preincubation with unlabeled (cold) BB-1
B7 antigen (human) [9] = target: B7 antigen (human) (UniProt P33681); assay: direct immunofluorescence flow cytometry, 5E1 cells
B7 antigen (human) [10] = target: B7 antigen (human) (UniProt P33681); assay: direct immunofluorescence flow cytometry, Daudi cells
B7 antigen (human) [11] = target: B7 antigen (human) (UniProt P33681); assay: direct immunofluorescence flow cytometry, Jijoye cells
B7 antigen (human) [12] = target: B7 antigen (human) (UniProt P33681); assay: direct immunofluorescence flow cytometry, Daudi Burkitt's lymphoma cells, no unlabeled BB-1
B7 antigen (human) [13] = target: B7 antigen (human) (UniProt P33681); assay: direct immunofluorescence flow cytometry, Jijoye Burkitt's lymphoma cells, no unlabeled BB-1
B7 antigen (human) [14] = target: B7 antigen (human) (UniProt P33681); assay: direct immunofluorescence flow cytometry, 5E1 B-lymphoblastoid cells, no unlabeled BB-1
B7 antigen (human) [15] = target: B7 antigen (human) (UniProt P33681); assay: direct immunofluorescence flow cytometry, Raji Burkitt's lymphoma cells, no unlabeled BB-1
B7 antigen (human) [16] = target: B7 antigen (human) (UniProt P33681); assay: direct immunofluorescence flow cytometry, Jijoye cells, after preincubation with unlabeled (cold) BB-1

B7 antigen (human), sequence (P33681 35-288): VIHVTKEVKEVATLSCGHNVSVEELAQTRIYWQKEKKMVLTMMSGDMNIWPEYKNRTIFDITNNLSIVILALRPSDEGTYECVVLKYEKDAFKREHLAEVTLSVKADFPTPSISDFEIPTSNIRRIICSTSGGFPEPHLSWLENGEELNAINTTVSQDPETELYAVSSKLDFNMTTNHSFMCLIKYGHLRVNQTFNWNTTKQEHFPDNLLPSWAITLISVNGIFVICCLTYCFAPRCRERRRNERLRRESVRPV

monoclonal antibody (mAb) 9.3 (anti-CD28)
[^3H]-T incorporation of PBL, +Anti-CD3, mAb 9.3 (immob.), Exp. 1 (CD28 receptor (human)): 137000 cpm
[^3H]-T incorporation of PBL, +Anti-CD3, mAb 9.3 (soln.), Exp. 1 (CD28 receptor (human)): 156000 cpm
[^3H]-T incorporation of PBL, +Anti-CD3, mAb 9.3 (soln.), Exp. 2 (CD28 receptor (human)): 75800 cpm
[^3H]-T incorporation of PBL, -Anti-CD3, mAb 9.3 (immob.), Exp. 1 (CD28 receptor (human)): 100 cpm
[^3H]-T incorporation of PBL, -Anti-CD3, mAb 9.3 (soln.), Exp. 1 (CD28 receptor (human)): 300 cpm
[^3H]-T incorporation of PBL, -Anti-CD3, mAb 9.3 (soln.), Exp. 2 (CD28 receptor (human)): 400 cpm
blocking of adhesion of B7 transfected COS cells to CD28+ CHO cells, EDTA omitted (CD28 receptor (human)): 40%
half-maximal inhibition of CD28-mediated adhesion (PM cells to CD28+ CHO) (CD28 receptor (human)): 10 nM
reduction of T51 cell adhesion to CD28+ CHO cells by mAb 9.3 alone (no EDTA) (CD28 receptor (human)): 62%
reduction of T51 cell adhesion to CD28+ CHO cells by mAb 9.3 plus EDTA (CD28 receptor (human)): 93%

mAb BB-1 (anti-B7) (antibody)
mean fluorescence (linear units), FITC-BB-1 +COLD (B7 antigen (human) [1]): 2.8 linear units
SPECIFIC BINDING (mean fluorescence, -cold minus +cold) (B7 antigen (human) [2]): 4.3 linear units
mean fluorescence (linear units), FITC-BB-1 +COLD (B7 antigen (human) [3]): 3 linear units
mean fluorescence (linear units), FITC-BB-1 -COLD (B7 antigen (human) [4]): 16.4 linear units
SPECIFIC BINDING (mean fluorescence, -cold minus +cold) (B7 antigen (human) [5]): 13.4 linear units
mean fluorescence (linear units), FITC-BB-1 +COLD (B7 antigen (human) [6]): 2.8 linear units
[^3H]-T incorporation of PHA blasts stimulated with B7+ CHO (40:1), BB-1 at 10 µg/ml (B7 antigen (human) [7]): 98300 cpm
blocking of adhesion of Jijoye cells to CD28+ CHO cells, 10 mM EDTA (B7 antigen (human) [7]): 60%
mean fluorescence (linear units), FITC-BB-1 +COLD (B7 antigen (human) [8]): 2.4 linear units
SPECIFIC BINDING (mean fluorescence, -cold minus +cold) (B7 antigen (human) [9]): 10.6 linear units
SPECIFIC BINDING (mean fluorescence, -cold minus +cold) (B7 antigen (human) [10]): 3.6 linear units
SPECIFIC BINDING (mean fluorescence, -cold minus +cold) (B7 antigen (human) [11]): 15 linear units
mean fluorescence (linear units), FITC-BB-1 -COLD (B7 antigen (human) [12]): 6.4 linear units
mean fluorescence (linear units), FITC-BB-1 -COLD (B7 antigen (human) [13]): 17.8 linear units
mean fluorescence (linear units), FITC-BB-1 -COLD (B7 antigen (human) [14]): 13 linear units
mean fluorescence (linear units), FITC-BB-1 -COLD (B7 antigen (human) [15]): 7.1 linear units
mean fluorescence (linear units), FITC-BB-1 +COLD (B7 antigen (human) [16]): 2.8 linear units

mAb 9.3 (Fab fragments)
[^3H]-T incorporation of PHA blasts stimulated with B7+ CHO (40:1), 9.3 Fab at 10 µg/ml (CD28 receptor (human)): 132000 cpm
